# Experimental data reported in publication PMC6586363.
# Target: recombinant human PKM2, wild type (human) (UniProt P14618)
# Assay: native gel or EMSA; blue native gel electrophoresis of recombinant PKM2 (WT or mutant) or PKM1, alone or with FBP and/or scFv 5; resolves dimer and tetramer forms
# Sequence of recombinant human PKM2, wild type, P14618 1-531 (enzyme; other documents disagree on this pair) (P14618 whole entry): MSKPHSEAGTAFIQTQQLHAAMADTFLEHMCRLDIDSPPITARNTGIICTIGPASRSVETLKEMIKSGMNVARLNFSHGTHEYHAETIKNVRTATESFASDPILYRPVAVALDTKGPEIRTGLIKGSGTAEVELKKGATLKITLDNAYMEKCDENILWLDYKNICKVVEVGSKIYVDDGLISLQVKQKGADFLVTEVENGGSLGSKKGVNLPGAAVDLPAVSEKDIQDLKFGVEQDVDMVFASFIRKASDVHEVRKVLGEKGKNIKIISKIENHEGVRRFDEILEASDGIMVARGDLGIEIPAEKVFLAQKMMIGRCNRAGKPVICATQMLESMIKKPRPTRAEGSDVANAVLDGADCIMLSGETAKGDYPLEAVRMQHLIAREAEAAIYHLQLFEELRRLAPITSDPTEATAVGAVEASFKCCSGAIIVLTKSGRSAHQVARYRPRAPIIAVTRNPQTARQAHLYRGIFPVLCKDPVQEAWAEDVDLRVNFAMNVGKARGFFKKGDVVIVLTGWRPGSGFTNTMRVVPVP
substance,measurement,value
"recombinant human PKM2, wild type, P14618 1-531 (enzyme; other documents disagree on this pair)",stoichiometry N,2
